Reference: patent US8114412B2, “T. cruzi-derived neurotrophic agents and methods of use therefor” (priority 1999, dated 2012)
Entries after “also recorded” stand apart in the source; their conditions may differ.

Tests used:
human Schwann cells = assay: Serum withdrawal-induced apoptosis of immortalized human Schwann cells (DAPI); type: cell-based
[1] = system: human bladder carcinoma T-24 cell line; assay: IL-6 secretion by T-24 carcinoma cells (ELISA); type: cell-based; conditions: 24 hours culture
PC12 cells = assay: Trophic factor withdrawal-induced apoptosis of PC12 cells (DAPI/TUNEL); type: cell-based, rat; conditions: serum-free RPMI-1640/0.2% BSA, 17 hours, DAPI or TUNEL
Procedure, shortened: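 PC12 cells were washed and plated at 2×10^5/ml in serum-free RPMI/0.2% BSA on collagen, with or without test agents. Apoptosis was scored by DAPI nuclear staining (300-400 cells counted) or TUNEL. Protection was calculated as 100% − (apoptosis% with agent ÷ apoptosis% in RPMI alone)×100%; wortmannin or LY294002 was added after 24 h, with DAPI read 24 h later.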

Akt kinase in PC12 cells = assay: Immunodetection of activated Akt (Ser 473) in PC12 cells; type: cell-based, rat; conditions: 100 ng/ml, 2, 5 or 10 minutes; phospho-Akt (Ser 473) antibody
Experimental: PC12 cells were deprived of serum for 24-48 hours, stimulated with TS, TS-F or LTR for 2, 5 or 10 minutes and immediately lysed with 2% SDS. In studies using the PI-3 kinase inhibitor, LY294002 (LY), cells were pre-treated with the inhibitor (1 μM) for 30 min prior to the addition of TS-F or TS. The proteins in the cell lysate were separated in SDS-10% polyacrylamide gels, transferred to nitrocellulose membrane (Bio-Rad) and the phosphorylated form of protein kinase Akt was detected with phospho-Akt (Ser 473) antibody (New England BioLabs, Beverly, Mass.), followed by alkaline phosphatase-conjugated secondary antibody (Promega, Madison, Wis.). Bands corresponding to phospho-Akt (60 kDa) were quantified using a scanning densitometer (Bio-Rad).

N18 cells = assay: Neurite outgrowth assay in N18 cells; type: cell-based; conditions: immobilized proteins coated at 500 μg/ml, 17 hours (FIG. 3A)
Experimental: FIG. 3A is a graph showing that neurite outgrowth in N18 cells is induced by immobilized laminin (Ln), immobilized TS and immobilized fragments of TS. Proteins were immobilized by incubating plates which contained wells filled with solutions of the proteins (protein concentration was 500 μg/ml) at 4° C. overnight. The protein solutions were removed and the plates were further incubated with 1% BSA at room temperature for one hour. N18 cells were cultured in the coated wells in serum-free RPMI-1640/0.2% BSA for 17 hours, and neurite outgrowth was measured by phase-contrast microscopy. […] Ln, laminin; TS, purified T. cruzi trans-sialidase; 7F, recombinant TS from clone 7F; 19Y, recombinant TS from clone 19Y; TS-F, recombinant fragment consisting of amino acid residues 33-666 of TS (SEQ ID NO:2); TS-CC-47, recombinant fragment consisting of amino acid residues 79-478 of TS (SEQ ID NO:2); TS-Cat-47, recombinant fragment consisting of amino acid residues 79-415 of TS (SEQ ID NO:2); BSA, bovine serum albumin.
96-well microtiter plates were coated overnight at 4° C. with the TS or peptides or fragments thereof, or with control proteins laminin (Ln) or bovine serum albumin (BSA) at 500 μg/ml. After removing the compounds, the plates were further incubated with 1% BSA for 1 hour at room temperature and immediately used as substratum for PC12 or N18 (Prasad, K. N., Biol Rev Camb Philos Soc, 66:431-451 (1991)) cells in serum-free RPMI/0.2% BSA. Neurite outgrowth was measured using a phase-contrast microscope 17 hours later.

B1: TS-F: recombinant full catalytic domain of TS, amino acid residues 33-666, His-tagged, expressed in E. coli (protein, listed as Trypanosoma cruzi)
chain: ETQIAIKNSRVSSVSRVVDPTVIVKGNKLYVLVGSYYSSRSYWSSHGDARDWDILLAVGEVTKSTAGGKITASIKWGSPVSLKKFFPAEMEGMHTNQFLGGAGVAIVASNGNLVYPVQVTNKRKQVFSKIFYSEDDGKTWKFGKGRSDFGCSEPVALEWEGKLIINTRVDWKRRLVYESSDMEKPWVEAVGTVSRVWGPSPKSNQPGSQTSFTAVTIEGMRVMLFTHPLNFKGRCVRDRLNLWLTDNQRIYNVGQVSIGDENSAYSSVLYKDDKLYCLHEINTDEVYSLVFARLVGELRIIKSVLRSWKNWTATCPAFAPLLIQPLRRQRVVVVPLSPRLVLLAFCRQRLPKRMGGSYRCVNASTANAERVRNGLKFAGVGGGALWPVSQQGQNQRYRFANHAFTLVASVTIHEAPRAASPLLGASLDSSGGKKLLGLSYDEKHQWQPIYGSTPVTPTGSWETGKRYHLVLTMANKIGSVYIDGELLEGSGQTVVPDGRTPDISHFYVGGYKRSDMPTISHVTVNNVLLYNRRQLNTEEIRTLFLSQDLIGTEAHMDSSSDSSAHSTPSTPADSSAHSTPSTPVDSSAHSTPSTPADSSAHGTPSTPVDSSAHGTPSTPADSSAHGTPSTPVDS
modifications: His tag
notes: recombinant full catalytic domain of TS, amino acid residues 33-666, His-tagged, expressed in E. coli
fragmented nuclei in serum-starved Schwann cells transfected with empty vector (neo) (human Schwann cells; CD 500 ng/ml): decreased the number of fragmented nuclei by about ten-fold
survival of Schwann cells transfected with PTEN mutant pG129R (human Schwann cells; CD 500 ng/ml): did not detectably enhance
protection of Schwann cells from apoptosis compared with 2% serum (human Schwann cells; CD 500 ng/ml (6 nM) in serum-free DMEM, 72 hours, listed as CD): nearly as effective as 2% serum
survival of control Schwann cells transfected with GFP vector (human Schwann cells; CD 500 ng/ml, serum-free 48 hours): did increase survival
survival of Schwann cells over expressing kinase-inactive Akt (AktKI) (human Schwann cells; CD 500 ng/ml, serum-free 48 hours, listed as CD): did not increase survival; also recorded: did not promote survival
rescue from apoptosis of Schwann cells over expressing PTEN (human Schwann cells; CD 500 ng/ml, listed as CD): did not rescue cells from apoptotic death
inhibition of serum withdrawal-induced apoptosis of human Schwann cells (human Schwann cells; serum-free DMEM, 24-72 hours, DAPI, listed as CD): protected Schwann cells against apoptosis; also recorded: protected human Schwann cells from apoptosis; also recorded: dose-dependent inhibition
IL-6 secretion by T-24 cells [1]: did not promote IL-6 release
protection of PC12 cells from apoptosis induced by trophic factor withdrawal (PC12 cells): survival being induced
phosphorylation/activation of Akt kinase in PC12 cells (Akt kinase in PC12 cells): effective in activating Akt
neurite outgrowth in N18 cells (N18 cells): induced neurite outgrowth to about the same extent as the intact enzyme
